The source of these data is patent publication US20210032365A1 (Chugai, published 2021).

Substitutions are numbered along the chain they refer to.

The target in assay [1] is T1, human C1s (human, UniProt P09871 16-688).
T1 construct: also called hC1s; serum-derived human C1s (CompTech)
T1 sequence: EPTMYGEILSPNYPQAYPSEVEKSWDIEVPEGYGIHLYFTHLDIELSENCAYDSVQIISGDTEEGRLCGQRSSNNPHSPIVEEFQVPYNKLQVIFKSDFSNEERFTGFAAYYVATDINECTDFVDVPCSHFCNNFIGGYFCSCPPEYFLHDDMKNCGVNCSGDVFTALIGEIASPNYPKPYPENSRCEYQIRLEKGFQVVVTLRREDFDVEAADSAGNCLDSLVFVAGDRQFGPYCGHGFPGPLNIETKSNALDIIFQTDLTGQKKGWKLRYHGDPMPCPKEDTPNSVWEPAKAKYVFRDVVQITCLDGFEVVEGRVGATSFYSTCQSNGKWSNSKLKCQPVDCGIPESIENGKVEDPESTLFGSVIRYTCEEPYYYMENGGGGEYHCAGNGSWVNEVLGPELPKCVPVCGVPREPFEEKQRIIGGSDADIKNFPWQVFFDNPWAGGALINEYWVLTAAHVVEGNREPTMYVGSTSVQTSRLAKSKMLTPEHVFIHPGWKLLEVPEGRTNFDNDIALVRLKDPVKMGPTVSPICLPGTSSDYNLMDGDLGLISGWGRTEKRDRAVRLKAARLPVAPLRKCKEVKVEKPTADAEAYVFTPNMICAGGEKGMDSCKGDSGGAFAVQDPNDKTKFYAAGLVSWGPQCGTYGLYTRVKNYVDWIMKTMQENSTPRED
The assay is described as follows: SPR; KD pH 5.8 3 uM Ca / KD pH 7.4 1.2 mM Ca. The gist of the method:
(§1)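 Histidine-substituted antibodies were captured on a protein A/G CM4 chip (~200 RU) and serum-derived or recombinant human C1s was injected at 50 nM, 37 °C. Running buffer was 20 mM ACES, 150 mM NaCl with 1.2 mM CaCl2 at pH 7.4 or 5.8, or 3 µM CaCl2 at pH 5.8. Ratios are KD pH 5.8 over KD pH 7.4.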

For assay [2], the target named is T1, human C1s. As to the kind of experiment: SPR, Ab captured; pH 5.8, 3 uM Ca. The procedure: All variants were transiently expressed and purified by the method described above. The binding affinity of each histidine-substituted variant at pH 7.4 and pH 5.8 was determined at 37 degrees C. using Biacore T200 instrument (GE Healthcare). Recombinant Protein A/G (Pierce) was immobilized onto all flow cells of a CM4 sensor chip using an amine coupling kit (GE Healthcare). Antibodies and analytes were prepared in 7(+) buffer (20 mM ACES, 150 mM NaCl, 1.2 mM CaCl2, 0.05% Tween 20, 0.005% NaN3, pH 7.4), 5(+) buffer (20 mM ACES, 150 mM NaCl, 1.2 mM CaCl2, 0.05% Tween 20, 0.005% NaN3, pH 5.8), or 5(−) buffer (20 mM ACES, 150 mM NaCl, 3 micro M CaCl2, 0.05% Tween 20, 0.005% NaN3, pH 5.8). Each antibody was captured onto the sensor surface by protein A/G. Antibody capture levels were aimed at 200 resonance unit (RU). Serum-derived human C1s (CompTech) or recombinant C1s prepared in EXAMPLE 1 was injected at 50 nM, followed by dissociation. The sensor surface was regenerated in each cycle with 10 mM Glycine-HCl, pH 1.5. […] The ratio of KD 5.8+ to KD 7.4+(“KD 5+/7+”) and that of KD 5.8− to KD 7.4+(“KD 5−/7+”) were calculated. When the KD 5+/7+ or KD 5−/7+ of a variant is larger than that of the parent antibody IPN009VH2-SG4GK/IPN009VK3-SK1, that variant is considered to be “pH”- or “pH and Ca”-dependent, respectively. When binding response in 5(+) buffer and/or in 5(−) buffer of a variant is much lower than that of IPN09VH2/IPN009VK3, that variant is also considered as “pH”- and/or “pH and Ca”-dependent. Therefore, such mutations are effective to generate “pH”- and/or “pH and Ca”-dependent antibody. To further enhance “pH” and/or “pH and Ca” dependency, a combination of histidine mutations was conducted. Antibodies with combinations of histidine mutations were evaluated using Biacore by the method described above.

For assay [3], the target named is T1, human C1s. The assay is described as follows: SPR; KD pH 5.8 1.2 mM Ca / KD pH 7.4 1.2 mM Ca. The gist of the method: as §1
Assay [4] deals with T1, human C1s. As to the kind of experiment: SPR, Ab captured; pH 5.8, 1.2 mM Ca. An outline of the steps:
as §1

Assay [5] deals with T1, human C1s. As to the kind of experiment: SPR, Ab captured; pH 7.4, 1.2 mM Ca. An outline of the steps:
as §1

The target in assay [6] is T2, Serum-derived human C1s (human, UniProt P09871 16-688).
T2 construct: The analyte was C1s purified from serum; also called hC1s
T2 sequence: T1 sequence
The assay is described as follows: SPR Biacore T200, 37 C, ratio of dissociation rates pH 5.8 / pH 7.4, 1.2 mM CaCl2. As for the experimental part:
(§2) The binding affinity of all histidine-substituted variants at pH 7.4 and pH 5.8 were determined at 37 degrees C. using Biacore T200 instrument (GE Healthcare). Recombinant Protein A/G (Pierce) was immobilized onto all flow cells of a CM4 sensor chip using amine coupling kit (GE Healthcare). Antibodies and analytes were prepared in 7(+) buffer (20 mM ACES, 150 mM NaCl, 1.2 mM CaCl2, 0.05% Tween 20, 0.005% NaN3, pH 7.4) or 5(+) buffer (20 mM ACES, 150 mM NaCl, 1.2 mM CaCl2), 0.05% Tween 20, 0.005% NaN3, pH 5.8). Each antibody was captured onto the sensor surface by protein A/G. Antibody capture levels were aimed at 200 resonance unit (RU). […] Sensor surface was regenerated each cycle with 10 mM Glycine-HCl pH 1.5. […] An additional dissociation phase at pH 5.8 was integrated immediately after the dissociation phase at pH 7.4. This dissociation rate in 5(+) buffer was determined by processing and fitting data using Scrubber 2.0 (BioLogic Software) curve fitting software.

Assay [7] addresses T2, Serum-derived human C1s. As to the kind of experiment: SPR Biacore T200, 37 C, ratio of KD pH 5.8 / pH 7.4, 1.2 mM CaCl2. The procedure: as §2, with “software. […]” for “software.”
In assay [8] the target is T2, Serum-derived human C1s. The assay is described as follows: SPR Biacore T200, 37 C, antibody captured on protein A/G, pH 7.4, 1.2 mM CaCl2. As for the experimental part: as §2
For assay [9], the target named is T2, Serum-derived human C1s. The assay is described as follows: SPR Biacore T200, 37 C, antibody captured on protein A/G, pH 5.8, 1.2 mM CaCl2. The procedure: as §2

B1: C1_IPN92H0038-SG4GK/IPN93L0029-SK1 (antibody, human IgG4 S228P, kappa, name in Kabat numbering, V domains shown)
VH: EVMLVESGGGLVKPGGSLRLSCAASGFTFSNYAMSWVRQAPGKGLEWVATISSGGSHTYYLDSVKHRFTISRDNSKDTLYLQMNSLRAEDTALYYCARLFTGHAMDYWGQGTLVTVSS
VL: QIVLTQSPATLSLSPGERATLSCTASSSVSSSYLHWYQQKPGKAPKLWIYSTSNLASGVPSRFSGSGSGTDYTLTISSLQPEDFATYYCHQYHRLHPITFGQGTKLEIKR
notes: also called IPN92H0038/IPN93L0029
Turning to B1, the “KD 5(-)/7(+)” value in the assay with human C1s [1] was found to be 0.9. Besides, in the assay with human C1s [2], the Kd is 6.62 nM, the koff was 0.00522 s⁻¹ and the kon turned out to be 789000 M⁻¹ s⁻¹. The “KD 5(+)/7(+)” value with human C1s [3] was 3.4. Moreover, in the assay with human C1s [4], the dissociation constant (Kd) stood at 24.2 nM, the koff stood at 0.0131 s⁻¹ and the kon is 539000 M⁻¹ s⁻¹. For the same molecule, in the assay with human C1s [5], the Kd amounted to 7.15 nM, the dissociation rate constant (koff) came to 0.003 s⁻¹ and the kon is 419000 M⁻¹ s⁻¹.

B2: C1_IPN92H0038-SG4GK/IPN93L0031-SK1 (antibody, human IgG4 S228P, kappa, name in Kabat numbering, V domains shown)
VH: B1 VH
VL: B1 VL with L95H
notes: also called IPN92H0038/IPN93L0031
On to B2, for which the “KD 5(-)/7(+)” value in the assay with human C1s [1] turned out to be 0.7. Further, the figures for the Kd with human C1s [2], in the assay with human C1s [4] and in the assay with human C1s [5] were 3.9 nM, 1.24 nM and 5.22 nM, respectively. Also, the koff turned out to be 0.00476 s⁻¹ with human C1s [2], 0.00146 s⁻¹ with human C1s [4] and 0.0396 s⁻¹ in the assay with human C1s [5]. The kon in the assay with human C1s [2] turned out to be 1.22e+06 M⁻¹ s⁻¹; with human C1s [4], 1.18e+06 M⁻¹ s⁻¹; in the assay with human C1s [5] it was 7.59e+06 M⁻¹ s⁻¹. Besides, the “KD 5(+)/7(+)” value with human C1s [3] stood at 0.2.

B3: C1_IPN92H0038-SG4GK/IPN93L0030-SK1 (antibody, human IgG4 S228P, kappa, name in Kabat numbering, V domains shown)
VH: B1 VH
VL: B1 VL with H93Y, L95H
notes: also called IPN92H0038/IPN93L0030
Turning to B3, in the assay with human C1s [1], the “KD 5(-)/7(+)” value turned out to be 30.1. The values for the Kd with human C1s [2], with human C1s [4] and with human C1s [5] were 599 nM, 70.3 nM and 19.9 nM, respectively. The off-rate constant (koff) with human C1s [2] came out at 0.00538 s⁻¹; in the assay with human C1s [4], 0.017 s⁻¹; with human C1s [5], 0.0111 s⁻¹. In addition, the association rate constant (kon) with human C1s [2] was 8980 M⁻¹ s⁻¹; with human C1s [4], 241000 M⁻¹ s⁻¹; with human C1s [5] it was 558000 M⁻¹ s⁻¹. For the same molecule, the “KD 5(+)/7(+)” value with human C1s [3] was determined as 3.5.

B4: C1_IPN92H0048-SG4GK/IPN93L0024-SK1 (antibody, human IgG4 S228P, kappa, name in Kabat numbering, V domains shown)
VH: B1 VH with F27H, H66G
VL: B1 VL with H93Y
notes: also called IPN92H0048/IPN93L0024
Consider B4, for which the “KD 5(-)/7(+)” value in the assay with human C1s [1] came to 1.1. In addition, the Kd worked out at 3.36 nM with human C1s [2], 12.1 nM in the assay with human C1s [4] and 3.14 nM with human C1s [5]. Also, the “KD 5(+)/7(+)” value with human C1s [3] came out at 3.9. Moreover, the koff with human C1s [4] was 0.00637 s⁻¹; with human C1s [5], 0.00082 s⁻¹. The kon in the assay with human C1s [4] came to 528000 M⁻¹ s⁻¹; in the assay with human C1s [5], 261000 M⁻¹ s⁻¹.

B5: IPN009VH2/IPN009VK3-SG136 (antibody, human IgG1, kappa)
heavy: EVMLVESGGGLVKPGGSLRLSCAASGFTFSNYAMSWVRQAPGKGLEWVATISSGGSHTYYLDSVKGRFTISRDNSKDTLYLQMNSLRAEDTALYYCARLFTGYAMDYWGQGTLVTVSSASTKGPSVFPLAPSSKSTSGGTAALGCLVKDYFPEPVTVSWNSGALTSGVHTFPAVLQSSGLYSLSSVVTVPSSSLGTQTYICNVNHKPSNTKVDKKVEPKSCDKTHTCPPCPAPELRRGPSVFLFPPKPKDTLMISRTPEVTCVVVDVSHEDPEVKFNWYVDGVEVHNAKTKPREEQYNSTYRVVSVLTVLHQDWLNGKEYKCKVSNKGLPSSIEKTISKAKGQPREPQVYTLPPSREEMTKNQVSLTCLVKGFYPSDIAVEWESNGQPENNYKTTPPVLDSDGSFFLYSKLTVDKSRWQQGNVFSCSVMHEALHNHYTQKSLSLSP
light: QIVLTQSPATLSLSPGERATLSCTASSSVSSSYLHWYQQKPGKAPKLWIYSTSNLASGVPSRFSGSGSGTDYTLTISSLQPEDFATYYCHQYYRLPPITFGQGTKLEIKRTVAAPSVFIFPPSDEQLKSGTASVVCLLNNFYPREAKVQWKVDNALQSGNSQESVTEQDSKDCTYSLSSTLTLSKADYEKHKVYACEVTHQGLSSPVTKSFNRGEC
notes: also called parent antibody
For the molecule B5, in the assay with Serum-derived human C1s [6], the “koff (5.8+ of 775+)/koff (7.4+)” value was 0.2. Also, in the assay with Serum-derived human C1s [7], the “KD (5.8+)/KD (7.4+)” value was found to be 0.4. This molecule showed a kon with Serum-derived human C1s [8] of 344000 M⁻¹ s⁻¹. Also, in the assay with Serum-derived human C1s [9], the koff is 0.000162 s⁻¹ and the kon came out at 360000 M⁻¹ s⁻¹.

B6: IPN009VH2/IPN93L0021-SG136 (antibody, human IgG1, kappa, name in Kabat numbering)
heavy: B5 heavy
light: B5 light with Y93H
notes: The substitution is numbered by Kabat
With B6, the “koff (5.8+ of 775+)/koff (7.4+)” value in the assay with Serum-derived human C1s [6] amounted to 1.9. Moreover, the “KD (5.8+)/KD (7.4+)” value with Serum-derived human C1s [7] turned out to be 1.5. The kon in the assay with Serum-derived human C1s [8] stood at 199000 M⁻¹ s⁻¹. In the assay with Serum-derived human C1s [9], this molecule had a koff of 0.00126 s⁻¹ and a kon of 290000 M⁻¹ s⁻¹.

B7: IPN009VH2/IPN93L0023-SG136 (antibody, human IgG1, kappa, name in Kabat numbering)
heavy: B5 heavy
light: B5 light with L95H
notes: also called IPN00VH2/IPN93L0023-SG136
As to B7, the “koff (5.8+ of 775+)/koff (7.4+)” value with Serum-derived human C1s [6] was found to be 1.1. The “KD (5.8+)/KD (7.4+)” value with Serum-derived human C1s [7] amounted to 0.9. In the assay with Serum-derived human C1s [8], this molecule registered a Kd of 2.77 nM and a kon of 227000 M⁻¹ s⁻¹. In the assay with Serum-derived human C1s [9], this molecule gave a Kd of 2.48 nM, a koff of 0.000818 s⁻¹ and a kon of 330000 M⁻¹ s⁻¹.
